Paper PMC7613211 (Nature chemical biology, 2022)

Columns and labels:
[1] = molecular target: T1, BT4631^6S-Gal/GalNAc (Bacteroides thetaiotaomicron, UniProt Q89YV0); test: desulfation assay; format: biochemical
T1 sequence (Q89YV0 26-520): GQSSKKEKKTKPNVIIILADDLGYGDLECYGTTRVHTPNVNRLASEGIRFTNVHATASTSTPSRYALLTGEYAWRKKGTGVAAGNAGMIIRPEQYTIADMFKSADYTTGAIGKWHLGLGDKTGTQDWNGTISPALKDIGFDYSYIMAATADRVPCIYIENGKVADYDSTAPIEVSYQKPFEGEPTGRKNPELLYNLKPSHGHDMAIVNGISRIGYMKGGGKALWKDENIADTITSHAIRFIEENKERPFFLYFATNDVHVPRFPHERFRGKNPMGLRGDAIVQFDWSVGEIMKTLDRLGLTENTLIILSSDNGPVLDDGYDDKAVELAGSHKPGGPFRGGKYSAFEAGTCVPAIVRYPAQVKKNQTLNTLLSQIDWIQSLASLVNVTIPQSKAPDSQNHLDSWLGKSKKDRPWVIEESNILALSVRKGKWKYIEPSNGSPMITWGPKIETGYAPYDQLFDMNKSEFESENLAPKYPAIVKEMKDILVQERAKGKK

[2] = molecular target: BT1918^3S,6S-GlcNAc (Bacteroides thetaiotaomicron) (UniProt Q8A6G6); test: SEC-MALS
[3] = molecular target: BT3796^4S-Gal/GalNAc (Bacteroides thetaiotaomicron) (UniProt Q8A171); test: SEC-MALS
[4] = molecular target: the molecule itself; test: SEC-MALS

For `CC(=O)N[C@H]1C(O)O[C@H](COS(=O)(=O)O)[C@H](O)[C@@H]1O` (stereo partly drawn) [6S-GalNAc], the “desulfation assay (kcat/KM only, supplement)” value [1] was “BT4631^6S-Gal/GalNAc cleave both 6S-GalNAc and 6S-Gal equally well”.

In the case of `O=S(=O)(O)OC[C@H]1OC(O)[C@H](O)[C@@H](O)[C@H]1O` (stereo partly drawn) [6S-Gal], the “desulfation assay (kcat/KM only, supplement)” value [1] is reported as “BT4631^6S-Gal/GalNAc cleave both 6S-GalNAc and 6S-Gal equally well”.

Work on “BT1918^3S,6S-GlcNAc (from UniProt Q8A6G6 1-500) (enzyme)” yielded a stoichiometry N [2] of 2.

Work on “BT3796^4S-Gal/GalNAc (from UniProt Q8A171 1-518) (enzyme)” yielded a stoichiometry N [3] of 2.

B1: BT3057^4S-Gal/GalNAc (enzyme, Bacteroides thetaiotaomicron, UniProt Q8A397 1-508, looked up)
chain: QERPNIIVFLVDDMGLMDTSVPFIADESGQPVRHPLNDWYHTPNMERLAKQGICFSTFYAQSVSSPSRASIMTGQNATRHGVTNWINAESNNRNPFGPPQWNWKGLRKDMPTMPRVLQQAGYKTIHVGKAHFGCMGSEGENPLNIGFDVNIAGSGIGHPGSYYGEWGYGHIKGQKIRAVPDLEKYHGTDTFLSEALTIEANREITKAVEEKRPFYLNMAHYAVHSPFQADKRFLSRYTDPDKNEQARAFATLIEGMDKSLGDIMDQLEKLGIAENTLILFLGDNGGDAPLGDERGYGSSAPLRGKKGTEFEGGMRVPFIAAWAKPEKKSKVQKNLPIEVGSMQTQLGTIMDIYPTVLSVAGCEVPQNYVIDGFDLKKQLSGKVDKKRPESFLMHFPHAHRGSYFTTYRMGDWKLIYYYLPETPKQPKALLYNLKDDPEERNELSAAHPDQCREMIREMSARLEKEGALYPVDKQGNELKPFVYF
For B1, the “stoichiometry N” value [4] was 2.
